The target of test [1] is T1, Flag-ΔD1-TMIGD1 (human TMIGD1 lacking the membrane-distal Ig-like domain, AA 115-262) (human) (UniProt Q6UXZ0).
T1 sequence: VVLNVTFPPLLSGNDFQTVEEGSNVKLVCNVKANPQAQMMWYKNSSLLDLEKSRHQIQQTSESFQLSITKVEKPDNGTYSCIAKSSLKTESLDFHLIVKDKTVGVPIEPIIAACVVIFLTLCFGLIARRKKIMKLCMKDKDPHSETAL

Test [2] addresses T2, Flag-TMIGD1/WT (human TMIGD1, AA 30-262) stably expressed in MDCKII-TetOFF cells (human) (UniProt Q6UXZ0).
T2 sequence: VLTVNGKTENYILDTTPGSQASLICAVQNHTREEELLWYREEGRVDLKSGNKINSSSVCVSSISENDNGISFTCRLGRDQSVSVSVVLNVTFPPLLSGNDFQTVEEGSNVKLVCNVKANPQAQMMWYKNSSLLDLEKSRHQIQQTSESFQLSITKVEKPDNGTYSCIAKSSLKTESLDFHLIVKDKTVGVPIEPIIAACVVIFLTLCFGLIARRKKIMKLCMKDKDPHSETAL

For 1 molecule, recruitment of ΔD1-TMIGD1 from cell-cell contacts to mitochondria in Myc-SYNJ2BP-expressing MDCKII-TetOFF cells (immunofluorescence microscopy, fraction of cells) and recruitment of TMIGD1/WT from cytoplasmic compartments to mitochondria in Myc-SYNJ2BP-expressing MDCKII-TetOFF cells (immunofluorescence microscopy, fraction of cells) results are on record in paper PMC7164261.

B1: Myc-hSYNJ2BP (human SYNJ2BP full length, AA 2-145) (natural protein)
chain: NGRVDYLVTEEEINLTRGPSGLGFNIVGGTDQQYVSNDSGIYVSRIKENGAAALDGRLQEGDKILSVNGQDLKNLLHQDAVDLFRNAGYAVSLRVQHRLQVQNGPIGHRGEGDPSGIPIFMVLVPVFALTMVAAWAFMRYRQQL
The molecule B1 returned a recruitment of ΔD1-TMIGD1 from cell-cell contacts to mitochondria in Myc-SYNJ2BP-expressing MDCKII-TetOFF cells (immunofluorescence microscopy, fraction of cells) in test [1] above 90%. In test [2], this molecule gave a recruitment of TMIGD1/WT from cytoplasmic compartments to mitochondria in Myc-SYNJ2BP-expressing MDCKII-TetOFF cells (immunofluorescence microscopy, fraction of cells) of 75%.
